Measured values taken from US9623039B2, “Treatment and prevention of pathological conditions using iduna related techniques and compositions” (VALTED, LLC, priority 2010, dated 2017).

What was measured:
PARsylated PARP1 = experiment: PARG activity on PARsylated PARP1; assay type: biochemical
Procedure: FIG. 85—PARG activity was measured by incubation with PARsylated PARP1 as indicated. The level of PARsylated PARP1 (Rb-PARP1) was monitored by immunoblot with anti-PAR antibody. There is a slight difference in the sensitivity of assays used to detect PAR, which accounts for the ability of 1 unit of PARG to eliminate PAR in B, but 1.2 units of PARG is required in A.
As disclosed herein, Iduna contains a consensus PBM is its WWE domain and that mutating the hydrophobic amino acids 155Y and 156R to alanine to create an Iduna YRAA mutant disrupts PAR binding to Iduna. MCF7 cells were transfected with GFP-Iduna, GFP-Iduna C60A and GFP-Iduna YRAA. 48 hours later Iduna was immunoprecipitated with antibodies to GFP followed by immunoblot analysis with antibodies to PAR. Iduna and Iduna C60A bind PAR whereas Iduna YRAA is incapable of binding PAR (FIG. 83). To confirm that Iduna binding to PARP1 is dependent on PARsylation of PARP1, binding of automodified PARP1 with ^32P-NAD was monitored in a GST pull down experiment with Histone H3 as a positive control (FIGS. 84 and 85). […] Iduna and Iduna-C60A bind to a range of PAR polymers of varying length similar to H3, whereas Iduna-YRAA fails to bind to PAR, as determined by phosphorimager detection of radiolabeled PAR polymer bound to Iduna, Iduna-C60A and H3 after separation by Tris-borate-EDTA PAGE (FIG. 87).

MCF7 cells [1] = experiment: Determination of apurinic/apyrimidinic (AP) sites; assay type: cell-based, human; settings: 1 h
Procedure: Determination of apurinic/apyrimidinic (AP) sites. The amount of AP sites in genomic DNA was monitored by a DNA damage quantification kit (BioVision). Briefly, cells were treated with either DMSO or 500 μM MNNG for 15 min, and then replaced with normal growth media. After 1 h, cells were scraped and harvested at 500×g for 5 min and washed once with PBS. Genomic DNA was isolated using a Biovision Genomic DNA Isolation Kit (BioVision) and then AP sites on the 0.5 μg of genomic DNA was labeled with biotin by the Aldehyde Reactive Probe (ARP) reagent (supplied with the DNA damage quantification kit) for 1 h at 37° C. To precipitate the biotin-tagged DNA, sample was mixed with TE buffer containing 2% glycogen and then sequentially incubated with ice cold 70% ethanol for 30 min at −20° C. […] To determine of the number of AP sites in DNA, samples were dissolved in TE buffer and then transferred into 96 well plate with DNA binding buffer (supplied with the DNA damage quantification kit). After 12 h, samples were washed five times with DNA washing buffer (supplied with the DNA damage quantification kit) and then biotin labeled AP sites were quantified using an avidin-biotin assay. Each sample and standards (supplied with a DNA damage quantification kit) were run in triplicate and the OD was measured at 650 nm using a 96-well plate reader (SpectraMax Plus384 Microplate Reader).

MCF7 cells [2] = experiment: MNNG cell death assay in stable MCF7 cell lines; assay type: cell-based, human; settings: MNNG 500 μM 15 min, 24 hr
Procedure: Cell death assay. GFP, GFP-Iduna, GFP-Iduna C60A, GFP-Iduna YRAA, shRNA-Iduna and shRNA-Iduna/GFP-Iduna stably transfected cells were treated with 500 μM MNNG for 15 min, and replaced with fresh growth media. After 24 h, the cells were stained with […] Hoechst 33342 (Invitrogen) and […] propidium iodide (PI) (Invitrogen) and counted by automated computer-assisted program (Carl Zeiss). The percentage of cell death was determined as the ratio of live to dead cells compared with the percentage of cell death in control.

MCF7 cells [3] = experiment: Cell cycle analysis after γ-irradiation; assay type: cell-based, human; settings: γ-irradiation 2 Gy
Procedure: Cell cycle analysis. Studies were performed to evaluate the cell cycle response of each stable cell lines. Cells were plated onto 150 mm culture dishes and cultured for 24 h at 37° C. with fresh growth medium. Following replacement of growth medium, cells were irradiated at 2 Gy with a Gammacell irradiator. After 12 h, cells were washed once with PBS and incubated with PBS containing 0.2% EDTA for 5 min at 37° C., thereafter scraped with fresh growth medium and collected at 500×g at 4° C. Collected cells were washed once with ice cold PBS and then fixed with 70% ethanol. Cells were washed once with PBS containing 1% FBS and resuspended into propidium iodide (PI) staining buffer (PBS, pH 7.4, 50 μg/ml PI, 1% FBS, 100 μg/ml RNase) for 30 min at 37° C. Cells were monitored for DNA content by a flow cytometry (BD Biosciences) and then data were analyzed with FlowJo using Dean-Jett-Fox model for the quantification of each cell cycle phase.

MCF7 cells [4] = experiment: Alkaline comet assay after γ-irradiation; assay type: cell-based, human; settings: γ-irradiation 2 Gy, 15 min
Procedure: Comet assay. Single cell gel electrophoresis assay was performed by following the manufacturer's instructions. Briefly, established stable cell lines were irradiated (2 Gy) with a Gammacell irradiator and then further incubated for 15 min at 37° C. Cells were collected at 500×g at 4° C. and rinsed twice with ice cold PBS (Ca++ and Mg++ free). A total of 5×10^5 cells were counted and resuspended into PBS (Ca++ and Mg++ free) and then combined with LMAgarose (low melting agarose) at a ratio 1:10 (v/v). Each sample was spotted into CometSlide™ and lysed with buffer (supplied with CometAssay Kit, Trevigen) for 1 h at 4° C. After draining the excess lysis buffer, slides were immersed with alkaline unwinding solution (200 mM NaOH, pH>13, 1 mM EDTA) for 1 h at RT. To the single cell electrophoresis, each comet slide was placed in electrophoresis slide tray with 1 L of alkaline unwinding solution and applied to 21 Volts for 30 min for electrophoresis. After draining the excess electrophoresis buffer, slides were rinsed twice with dH2O and then fixed with 70% ethanol for 5 min. To facilitate single cell observation, slides were dried at 40° C. and stained with SYBR Green I (supplied with CometAssay Kit) for 5 min at 4° C. […] Fifty cells per slide were monitored and the DNA damage was calculated using comet tail length and head diameter parameters.

PAR polymer = PAR polymer overlay / dot blot (far western); assay type: binding; settings: PAR polymer overlay assay
Excerpt: PAR binding is specified by a sequence of approximately 20 amino acids containing N-terminal basic amino acids and a C-terminal region containing alternating hydrophobic and basic amino acids (FIG. 24). Iduna contains a predicted PAR polymer binding sequence within amino acids 144-167 of the WWE domain (FIGS. 1 and 24). The PAR-binding domain was defined by comparing to the consensus sequence for PAR-binding and the known PAR binding domain of Histone 3 (FIG. 24). HEK293 cells were transfected with GFP, GFP-Iduna lacking the WWE domain (GFP-IdunaΔWWE), GFP-Iduna lacking the RF domain (GFP-IdunaARF), and full-length GFP-Iduna, followed by immunoprecipitation with a GFP antibody. […] Only GFP-Iduna-ARF and full-length GFP-Iduna can co-immunoprecipiate PAR binding proteins (FIG. 25). The critical amino acids in the PAR binding domain, 156Y and 157R, were mutated to 156A and 157A in full length Iduna (Iduna-YRAA). […] Similar results are obtained with a biotin-tagged PAR polymer followed by detection with an anti-biotin antibody (FIG. 26). […] Histone H3 is a known PAR binding protein and was used as a positive control for the PAR overlay assay. […] An assay based on electrophorectic mobility shift (EMSA) for PAR binding was developed to monitor PAR polymer binding to Iduna. […]

B1: PARG: PAR glycohydrolase, which degrades PAR (protein, UniProt Q86W56 1-976, looked up)
Poly(ADP-ribose) …: MNAGPGCEPCTKRPRWGAATTSPAASDARSFPSRQRRVLDPKDAHVQFRVPPSSPACVPGRAGQHRGSATSLVFKQKTITSWMDTKGIKTAESESLDSKENNNTRIESMMSSVQKDNFYQHNVEKLENVSQLSLDKSPTEKSTQYLNQHQTAAMCKWQNEGKHTEQLLESEPQTVTLVPEQFSNANIDRSPQNDDHSDTDSEENRDNQQFLTTVKLANAKQTTEDEQAREAKSHQKCSKSCDPGEDCASCQQDEIDVVPESPLSDVGSEDVGTGPKNDNKLTRQESCLGNSPPFEKESEPESPMDVDNSKNSCQDSEADEETSPGFDEQEDGSSSQTANKPSRFQARDADIEFRKRYSTKGGEVRLHFQFEGGESRTGMNDLNAKLPGNISSLNVECRNSKQHGKKDSKITDHFMRLPKAEDRRKEQWETKHQRTERKIPKYVPPHLSPDKKWLGTPIEEMRRMPRCGIRLPLLRPSANHTVTIRVDLLRAGEVPKPFPTHYKDLWDNKHVKMPCSEQNLYPVEDENGERTAGSRWELIQTALLNKFTRPQNLKDAILKYNVAYSKKWDFTALIDFWDKVLEEAEAQHLYQSILPDMVKIALCLPNICTQPIPLLKQKMNHSITMSQEQIASLLANAFFCTFPRRNAKMKSEYSSYPDINFNRLFEGRSSRKPEKLKTLFCYFRRVTEKKPTGLVTFTRQSLEDFPEWERCEKPLTRLHVTYEGTIEENGQGMLQVDFANRFVGGGVTSAGLVQEEIRFLINPELIISRLFTEVLDHNECLIITGTEQYSEYTGYAETYRWSRSHEDGSERDDWQRRCTEIVAIDALHFRRYLDQFVPEKMRRELNKAYCGFLRPGVSSENLSAVATGNWGCGAFGGDARLKALIQILAAAAAERDVVYFTFGDSELMRDIYSMHIFLTERKLTVGDVYKLLLRYYNEECRNCSTPGPDIKLYPFIYHAVESCAETADHSGQRTGT
removal of PAR from PARsylated PARP1 (PARsylated PARP1): dose dependently removes PAR from PARsylated PARP1

B2: Iduna C60A: Iduna RING finger point mutant lacking E3 ligase activity (protein, UniProt Q9NTX7 1-359, looked up, variant C60A)
E3 ubiquitin-protein ligase …: MMAGCGEIDHSINMLPTNRKANESCSNTAPSLTVPECAICLQTCVHPVSLPCKHVFCYLAVKGASWLGKRCALCRQEIPEDFLDKPTLLSPEELKAASRGNGEYAWYYEGRNGWWQYDERTSRELEDAFSKGKKNTEMLIAGFLYVADLENMVQYRRNEHGRRRKIKRDIIDIPKKGVAGLRLDCDANTVNLARESSADGADSVSAQSGASVQPLVSSVRPLTSVDGQLTSPATPSPDASTSLEDSFAHLQLSGDNTAERSHRGEGEEDHESPSSGRVPAPDTSIEETESDASSDSEDVSAVVAQHSLTQQRLLVSNANQTVPDRSDRSGTDRSVAGGGTVSVSVRSRRPDGQCTVTEV
modifications: GFP tag
increase in AP sites after MNNG (MCF7 cells [1]): fails to reduce the number of AP sites
MNNG-induced cell death (MCF7 cells [2]): not protective
cell cycle arrest and cell survival (MCF7 cells [3]): not protective
comet head diameter and tail length (MCF7 cells [4]): does not prevent the reduction in head diameter and increase in tail length

B3: GST-Iduna: full length recombinant GST-Iduna fusion protein (protein)
chain: MEMAGCGEIDHSINMLPTNKKANESCSNTAPSLTVPECAICLQTCVHPVSLPCKHVFCYLCVKGASWLGKRCALCRQEIPEDFLDKPTLLSPEELKAASRGNGEYAWYYEGRNGWWQYDERTSRELEDAFSKGKKNTEMLIAGFLYVADLENMVQYRRNEHGRRRKIKRDIIDIPKKGVAGLRLDCDTNTVNLARESSADGADSGSAQTGASVQLAVPSSTRPLTSVDGQLTSPVTPSPDAGISLEDSFAHLQLSGDSIAERSHRGEGEEDHESPSSGRVPDTSVEETESDASSDSEDAPVVVAQHSLTQQRPLVPNGNQTVADQSDRSGTDRSVAGGGTMSVNVRSRRPDGQCTVIEV
modifications: left off: a dimerising Fc or GST
notes: full length recombinant GST-Iduna fusion protein
PAR polymer binding (PAR polymer): binds to PAR polymer
